Data taken from patent publication US20220411536A1 (NUMAB THERAPEUTICS, published 2022).
Blank lines part the entries; values can stand above or below the binder they belong to.

Columns and labels:
[1] = molecular target: T1, human HER2 expressed on cells (SK-OV3, MCF-7, HCC1954, HCC827) (human, UniProt P04626 23-1255); assay: flow cytometry, SK-OV3 cells, no competitor
T1 construct: whole, on cells

[2] = molecular target: T2, recombinant human CD3E ECD (SinoBiological, cat. 10977-H08H) (human, UniProt P07766 23-126); assay: SPR, immobilised CD3e ECD, two-state model
T2 construct: extracellular domain; bought protein; also called CD3s

[3] = molecular target: T1, human HER2 expressed on cells (SK-OV3, …); assay: flow cytometry, SK-OV3 cells
[4] = molecular target: T3, Fc-tagged human PD-L1 extracellular domain (SinoBiological, cat. 10084-H02H) (human, UniProt Q9NZQ7 19-238); assay: SPR, captured Fc-PD-L1 ECD, kinetic
T3 construct: extracellular domain; also called hPD-L1; not shown: Fc tag of the bought protein

[5] = molecular target: T4, CD3e on Jurkat PD-1 NFAT reporter T cells or on T cells of human PBMCs (human, UniProt P07766 23-207); assay: cell-based or functional assay
mouse serum albumin = molecular target: T5, mouse serum albumin (mouse, UniProt P07724 25-608); assay: SPR, immobilised MSA, pH 5.5
T5 construct: also called MSA; mouse SA

[6] = molecular target: T2, recombinant human CD3E ECD …; assay: SPR, immobilised CD3e ECD, two-state model (kd1)
[7] = molecular target: T4, CD3e on Jurkat PD-1 NFAT reporter T …; assay: cell-based or functional assay; remark: listed apart in the source
[8] = molecular target: T4, CD3e on Jurkat PD-1 NFAT reporter T …; assay: cell-based or functional assay; remark: listed apart in the source
[9] = molecular target: T6, human PD-L1 expressed on cells (CHO-PD-L1, HCC1954, HCC827) (human, UniProt Q9NZQ7 19-290); assay: flow cytometry, inhibition of biotinylated PD-1 binding to HCC1954 cells
T6 construct: whole, on cells; also called hPD-L1; PD-L1 expressing cells

[10] = molecular target: T1, human HER2 expressed on cells (SK-OV3, …); assay: flow cytometry, MCF-7 cells
[11] = molecular target: T3, Fc-tagged human PD-L1 extracellular …; assay: SPR, captured Fc-PD-L1 ECD, steady state
[12] = molecular target: T1, human HER2 expressed on cells (SK-OV3, …); assay: flow cytometry, IFNy-stimulated HCC1954 cells
human serum albumin = molecular target: T7, human serum albumin (human, UniProt P02768 25-609); assay: SPR, immobilised HSA, pH 5.5
T7 construct: also called HSA; human SA

[13] = molecular target: T3, Fc-tagged human PD-L1 extracellular …; assay: SPR, captured Fc-PD-L1 ECD, kinetic; kinetic analysis; the patent holds the steady state KD (3.47E-07 M) for the valid one
[14] = molecular target: T2, recombinant human CD3E ECD …; assay: SPR, immobilised CD3e ECD, two-state model (ka1)
[15] = molecular target: T6, human PD-L1 expressed on cells …; assay: flow cytometry, inhibition of biotinylated PD-1 binding to HCC827 cells
[16] = molecular target: T1, human HER2 expressed on cells (SK-OV3, …); assay: flow cytometry, IFNy-stimulated HCC827 cells
[17] = molecular target: T1, human HER2 expressed on cells (SK-OV3, …); assay: flow cytometry, SK-OV3 cells, competitor 50 nM pertuzumab
[18] = molecular target: T8, recombinant human IL-23R (custom-made by Trenzyme) (human, UniProt Q5VWK5 24-355); assay: SPR, immobilised IL-23R
T8 sequence (looked up): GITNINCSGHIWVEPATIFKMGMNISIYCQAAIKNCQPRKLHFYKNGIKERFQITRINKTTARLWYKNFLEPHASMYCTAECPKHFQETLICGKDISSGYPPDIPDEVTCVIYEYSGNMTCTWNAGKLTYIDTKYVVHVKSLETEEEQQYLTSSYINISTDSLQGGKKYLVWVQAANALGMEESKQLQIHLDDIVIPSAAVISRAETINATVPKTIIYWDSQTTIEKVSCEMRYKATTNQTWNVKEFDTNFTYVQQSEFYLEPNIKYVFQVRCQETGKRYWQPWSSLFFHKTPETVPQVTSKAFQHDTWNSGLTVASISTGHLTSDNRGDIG

[19] = molecular target: T9, recombinant human Her2 ECD (SinoBiological, cat. 10004-HCCH) (human, UniProt P04626 23-652); assay: SPR, immobilised Her2 ECD
T9 construct: extracellular domain; bought protein

[20] = molecular target: T3, Fc-tagged human PD-L1 extracellular …; assay: SPR, captured Fc-PD-L1 ECD, scFv analyte, kinetic
[21] = molecular target: T3, Fc-tagged human PD-L1 extracellular …; assay: SPR
[22] = molecular target: T3, Fc-tagged human PD-L1 extracellular …; assay: SPR, captured Fc-PD-L1 ECD, scFv analyte, steady state

- EC50 [1]: 4.09 nM
- KD1 [2]: 28.5 nM
- Kd [2]: 15.7 nM
- kd2 [2]: 0.00503 s⁻¹
- EC50 [3]: 3.32 nM
- koff [4]: 0.000367 s⁻¹
- kon [4]: 17600 M⁻¹ s⁻¹
- IC50, NFAT reporter, CHO-PD-L1 (A2 clone) cells [5]: 29.2 nM
- IC50, NFAT reporter, HCC1954 cells [5]: 0.402 nM
- IC50, NFAT reporter, HCC1954 cells, + nivolumab [5]: 0.125 nM
- rel. max. activation vs PRO1497, NFAT reporter, HCC1954 cells [5]: 102%
- rel. max. activation vs PRO1497 on HCC1954, NFAT reporter, CHO-PD-L1 (A2 clone) cells [5]: 62%
- Kd (mouse serum albumin): 19.5 nM
- koff (mouse serum albumin): 0.00117 s⁻¹
- kon (mouse serum albumin): 60200 M⁻¹ s⁻¹
- koff [6]: 0.00542 s⁻¹
- T cell activation IC50, PBMC with HCC827 cells [8]: 0.136 nM
- T cell activation IC50, PBMC with HCC1954 cells [8]: 0.049 nM
- IC50 [9]: 0.601 µg/mL
- EC50 [10]: 28.6 nM
- Kd [11]: 347 nM
- EC50 [12]: 27.8 nM
- Kd (human serum albumin): 0.81 nM
- koff (human serum albumin): 0.000118 s⁻¹
- kon (human serum albumin): 145000 M⁻¹ s⁻¹
- Kd [13]: 20.9 nM
- kon [14]: 190000 M⁻¹ s⁻¹
- IC50 [15]: 59.2 µg/mL
- EC50 [16]: 3.9 nM
- EC50 [17]: 4.16 nM
- Kd [19]: 0.406 nM
- koff [19]: 6.26e-05 s⁻¹
- kon [19]: 154000 M⁻¹ s⁻¹
B1: PRO1543 (multispecific antibody)
chain 1: not shown
chain 2: DIQMTQSPSSLSASVGDRVTITCQASQSINDYLAWYQQKPGKAPKLLIYKASTLASGVPSRFSGSGSGTDFTLTISSLQPEDFATYYCQAAYIITDIDNVFGTGTKVTVLGGGGGSGGGGSGGGGSGGGGSQVQLQESGPGLVKPSETLSLTCKVSGFSFSSGYDMCWIRQPPGKGLEWIGCVVAGSVDITYYASWAKGRVTISVDSSKNQFSLKLSSVTAADTAVYYCARKDAYSDAFNLWGQGTLVTVSSGGGGSGGGGSEVQLVESGGGLVQPGGSLRLSCAASGFSLSSYDMSWVRQAPGKGLAWIGASYASGPTYYASWAKGRFTISRDNSKNTVYLQMNSLRAEDTATYFCARGGWTGTSHSNIWGQGTLVTVSSGGGSGGGSEVQLVESGGGLVQPGGSLRLSCAASGFSFSSSYWICWVRQAPGKCLEWVGCVFTGDGTTYYASWAKGRFTISRDNSKNTVYLQMNSLRAEDTATYFCARPVSVYYYGMDLWGQGTLVTVSS
notes: also called trastuzumab-based MATCH4
- target cell killing IC50, 16 h, HCC1954 cells [7]: 0.00023 nM
- target cell killing IC50, 16 h, MCF-7 cells [7]: 0.00311 nM
- binding result [18]: no binding (tested: 90 nM highest concentration)

- Kd [20]: 492 nM
- koff [20]: 0.535 s⁻¹
- kon [20]: 1.09e+06 M⁻¹ s⁻¹
- fold reduction of affinity vs PRO830 [21]: 6500 fold
- Kd [22]: 487 nM
B2: PRO1434 (scFv, V domains shown)
VH: QVQLQESGPGLVKPSETLSLTCKVSGFSFSSGYDMCWIRQPPGKGLEWIGCVVAGSVDITYYASWAKGRVTISVDSSKNQFSLKLSSVTAADTAVYYCARKDAYSDAFNLWGQGTLVTVSS
VL: DIQMTQSPSSLSASVGDRVTITCQASQSINDYLAWYQQKPGKAPKLLIYKASTLASGVPSRFSGSGSGTDFTLTISSLQPEDFATYYCQAAYIITDIDNVFGTGTKVTVLG
notes: also called 33-03-G02 VL-Q108A/G109A
